{
  "source": "paper PMC10720262",
  "about": "(Cell Reports, 2023)",
  "key": {"[1]": {"target": "recombinant full-length PfCSP (Plasmodium falciparum circumsporozoite protein, strain NF54) (Plasmodium falciparum NF54, UniProt P19597)", "sequence (P19597 20-375)": "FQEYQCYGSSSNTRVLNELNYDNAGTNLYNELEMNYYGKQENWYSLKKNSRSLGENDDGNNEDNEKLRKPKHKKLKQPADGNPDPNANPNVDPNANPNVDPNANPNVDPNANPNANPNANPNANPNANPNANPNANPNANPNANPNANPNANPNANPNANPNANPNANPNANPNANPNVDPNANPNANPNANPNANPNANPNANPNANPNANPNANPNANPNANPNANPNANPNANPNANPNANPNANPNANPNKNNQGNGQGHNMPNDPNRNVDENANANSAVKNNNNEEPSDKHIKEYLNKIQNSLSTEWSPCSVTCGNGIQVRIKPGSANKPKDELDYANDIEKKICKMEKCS", "test": "cell-based or functional assay"}, "NANP6 peptide": {"target": "T1, NANP6 peptide (Plasmodium falciparum NF54)", "T1 construct": "source: synthetic peptide (CPC Scientific)", "test": "SPR; Carterra LSA; mAb amine-coupled to a CMD200M chip, peptide titrated in 2-fold steps up to 8 ug/mL without regeneration; 25 C; HBSTE (10 mM HEPES pH 7.4, 150 mM NaCl, 3 mM EDTA, 0.01% Tween 20); 1:1 Langmuir model; mean of triplicates; KD includes avidity for antigens with several repeats", "conditions": "both partners purified"}},
  "data": [
    {"binder": "mAb Ky15.3 (human IgG1) (antibody, V domains shown) VH: QVQLVESGGGVVQPGRSLRLSCVASGFTFSNAGMHWVRQTPGKGLEWVAIIWYDGSIKYYGESVKGRFTISRDNSKNTLYLEMSSLRAEDTAVYFCVRAYSGSLYDKYGMDVWGQGTTVIVSS VL: DIQMTQSPSTLSASVGDRVTISCRASQTISTWLAWFQQKPGKAPKLLIYAASSLQSGVPSRFSGSGSGTDFTLTISNLQPDDFATYYCQQFNSYWTFGQGTKVEIK", "values": [
      {"measurement": "other", "setting": "[1]", "result": "< 1.5", "unit": "µg/mL"}
    ]},
    {"binder": "mAb Ky230 (human IgG1) (antibody, V domains shown) VH: QVQLVESGGGVVQPGRSLRLSCAASGFTFSDYGMHWVRQAPGKGLEWVAIIWHDGSNKYYVDSVKGRFTISRDNSKNTLYLQMNSLRAEDTAVYYCARAASSFGSGFDYWGQGTLVTVSS VL: DVVMTQSPLSLPVTLGQPASIFCRSSQSLVYSDGNTYLNWFQRRPGQSPRRLIYKVSDRDSGVPDRFSGSGSGTDFTLQISRVEAEDVGVYYCMQGTHWPPTFGQGTKVEIK", "values": [
      {"measurement": "other", "setting": "[1]", "result": "< 1.5", "unit": "µg/mL"}
    ]},
    {"binder": "mAb Ky315 (human IgG1) (antibody, V domains shown) VH: QVQLVESGGGVVQPGRSLRLSCAASGFTLSNYGVHWVRQAPGTGLEWVALIWYDGSNKFYADSVKGRFTISRDNSMDIVYLQMNNLRAEDTALYYCVRPGIAAAGSNYYAMDVWGQGTAVTVSS VL: EIVMTQSPATLSMSPGERATLSCRASQSVGSDLAWFQQKPGQAPRLLIYGAFTRATGIPARFSGSGSGSEFTLTISSLQSEDFAVYYCQQYNRWWTFGQGTKVEMK", "values": [
      {"measurement": "other", "setting": "[1]", "result": "< 1.5", "unit": "µg/mL"}
    ]},
    {"binder": "mAb Ky15.1 (human IgG1) (antibody, V domains shown) VH: QVQLVESGGGVVQPGRSLRLSCAASGFTFSNFGMHWVRQTPDRGLEWVAIIWFDGSNTFYADSVKGRFTISRDNYKNTLYLQMNSLRAEDTAVYFCARSFYSDSAGSLFDYWGQGTLVTVSS VL: DIQMTQSPSTLSASVGDRVTITCRASQSISSWVAWYQQKPGKAPKLLIYKASDLETGVPSRFSGSGSGTEFTLTISGLQPDDFVTYYCLQNMRYWTFGQGTKVEIK", "values": [
      {"measurement": "other", "setting": "[1]", "result": "< 1.5", "unit": "µg/mL"}
    ]},
    {"binder": "mAb Ky15.5 (human IgG1) (antibody, V domains shown) VH: QVQMVASGGGVVQPGRSLRLSCAVSGFTFRNFGMHWVRQDPGRGLEWVAIIWYDGSYEFYADSVKGRFTISRDNSKNTLYLQMNSLRAEDTAVYYCARSYGSLTGDETKYGMDVWGQGTTVTVSS VL: DIQMTQSPSTLSASVGDRVTITCRASQSISSWLAWFQQKPGKAPKLLIYKASSLESGVPSRFSGSGSGTEFTLTISSLQPDDFATYYCQQYKNYWTFGQGTKVEIK", "values": [
      {"measurement": "other", "setting": "[1]", "result": "< 1.5", "unit": "µg/mL"}
    ]},
    {"binder": "Ky15.5 (antibody, V domains shown, source: CHO-3E7, purified (MabSelect SuRe LX)) VH: QVQMVASGGGVVQPGRSLRLSCAVSGFTFRNFGMHWVRQDPGRGLEWVAIIWYDGSYEFYADSVKGRFTISRDNSKNTLYLQMNSLRAEDTAVYYCARSYGSLTGDETKYGMDVWGQGTTVTVSS VL: DIQMTQSPSTLSASVGDRVTITCRASQSISSWLAWFQQKPGKAPKLLIYKASSLESGVPSRFSGSGSGTEFTLTISSLQPDDFATYYCQQYKNYWTFGQGTKVEIK", "values": [
      {"measurement": "Kd", "setting": "NANP6 peptide", "result": "≤ 0.0369", "unit": "nM"}
    ]},
    {"binder": "mAb Ky311 (human IgG1) (antibody, V domains shown) VH: QMHLVESGGGVVQPGRSLRLSCVASGFTFNNHGMHWVRQAPGKGLEWVAVIWHDGSNKFYADSVNGRFIVSRDNSKNTLYLHMNSLRAEDTAVYYCARDFFVSGSYNYFDPWGQGTLVTVSS VL: EIVLTQSPVTLSLSPGERATLSCRASQSVSNYLAWYQQKPGQAPRLLIYDAANRATGTPARFSGSGSGTDFTLTISSLEPEDFAVYFCQQRSKWFTFGPGTKLDIK", "values": [
      {"measurement": "other", "setting": "[1]", "result": "< 1.5", "unit": "µg/mL"}
    ]},
    {"binder": "mAb Ky15.2 (human IgG1) (antibody, V domains shown) VH: QVLLVESGGGVVQPGTSLRLSCVASGFSFSTYGMHWVRQSPGKGLEWVAIIWYDGGNKFYADSVQGRFTVSRDNSKNTLYLQMNSLRAEDTAVYYCAKAYRTSLDKKYGMDVWGQGTTVTVSS VL: DIQMTQSPSTLSASVGDRVTITCRASQSIASWLAWYQQKPGKAPKLLIYKASSLESGVPSRFSGSGSGTEFTLTISSLHPDDFATYFCQQFTSYWTFGQGTKVEIK", "values": [
      {"measurement": "other", "setting": "[1]", "result": "< 1.5", "unit": "µg/mL"}
    ]}
  ]
}
